Data taken from the DeepSol protein solubility set.

Assay: soluble on expression in E. coli; label from the status in PepcDB or PDB records

Soluble on expression in E. coli, not soluble:
MGSDKIHHHHHHMNKELASKFLSSIKHEREQDIQTTSRLLTTLSIQQLVQNGLAINNIHLENIRSGLIGKLYMELGPNLAVNDKIQRGDIKVGDIVLVRPAKTKVNTKTKPKVKKVSEDSNGEQAECSGVVYKMSDTQITIALEESQDVIATTFYSYSKLYILKTTNVVTYNRMESTMRKLSEISSPIQDKIIQYLVNERPFIPNTNSFQNIKSFLNPNLNDSQKTAINFAINNDLTIIHGPPGTGKTFTLIELIQQLLIKNPEERILICGPSNISVDTILERLTPLVPNNLLLRIGHPARLLDSNKRHSLDILSKKNTIVKDISQEIDKLIQENKKLKNYKQRKENWNEIKLLRKDLKKREFKTIKDLIIQSRIVVTTLHGSSSRELCSLYRDDPNFQLFDTLIIDEVSQAMEPQCWIPLIAHQNQFHKLVLAGDNKQLPPTIKTEDDKNVIHNLETTLFDRIIKIFPKRDMVKFLNVQYRMNQKIMEFPSHSMYNGKLLADATVANRLLIDLPTVDATPSEDDDDTKIPLIWYDTQGDEFQETADEATILGSKYNEGEIAIVKEHIENLRSFNVPENSIGVISPYNAQVSHLKKLIHDELKLTDIEISTVDGFQGREKDVIILSLVRSNEKFEVGFLKEERRLNVAMTRPRRQLVVVGNIEVLQRCGNKYLKSWSEWCEENADVRYPNIDDYL
MQLYVVLCFLVLLGLSAGQMTFTDQWTKKRATLHKQLPVVTPEEPICPSDRVQAVFEQLDQLQKAQQRLTEYLASCAYPVEVPQKAEKM
MRAIVLLSVLISCYLVIAEDYYELLGVERDADDRTIRKAFKKLAIKKHPDRNTDDPNAHDEFVKINKAYEVLKDENLRKKYDQFGEKGLEDGFQGGNNYQSWQFYNDNFGIYDDDQEIVTLNRADFQRMVSDSNEIWFINFYSTYCSHCHQLAPTWRKFAREIEGTIRVGAVNCAEDPQLCQSQRVNAYPSLVFYPTGEFYQGHRDVELMVDFAIQRLKSEVLHLNSENWKALSEDWEPYNRLPWVVDMCGGDHIDCLSSTTRRKLSSMLDGLANVATIDCNAEEALCSKFNPITSGVMWFPARKLVKKSQINIESMDAQEISKSVIQYLDELEDISVESLQRLLEGNDPDEPIAVWMLANDAQSTERKDFRRLPALVTTQIFKFDCSKSSEICDELLDKTKLPQFMVFKTTGGYEIDYAGSKDFHAASTFIREASKSHIHVLNRDSYEYAISGGEFYIIDYFAPWCPPCMKLLGEYRRFHTATSEDSMLHTVAIGSLDCVKYKDLCQQAGVQSYPTSIVYTPDGKTHKMVGYHNVDYILEFLDNSLNPSVMEMSPEQFEELVMNRKDEETWLVDFFAPWCGPCQQLAPELQKAARQIAAFDENAHVASIDCQKYAQFCTNTQINSYPTVRMYPAKKTKQPRRSPFYDYPNHMWRNSDSIQRWVYNFLPTEVVSLGNDFHTTVLDSSEPWIVDFFAPWCGHCIQFAPIYDQIAKELAGKVNFAKIDCDQWPGVCQGAQVRAYPTIRLYTGKTGWSRQGDQGIGIGTQHKEQFIQIVRQQLKLDEHDEL
MGSDKIHHHHHHMLSRILEKYRENGIQGIVLALISRFPGVRAVCVYYVYRLPFDKLVRKQLSVGNLKVVQVKSDSMGDLIRVQDKPDIFGERFQMGHYGFVAYVNNDPVAYLWGQEGPVHVERRFGFEVPIKDNQVFYYDSYTIPEWRKSGVGRALIQESIDFFKNGLGKSELIAIIETGNLVSQKTYERMGFVREAMHIHLDIIGKKINKQLARMVTQ
NSPITIGLALNKKLNNHWSIETGLQYIYLKSEFTTGKEYRIQKTQKLHYIGIPLRISYRFGNYKQFSFYSTAGLQMEIPIKGTLHTSHVTDSVPINLGYQSLDVPLQWSINASTGVQYHFTPHTSIYIEPTINYYIPDGSSLRTIRKEHPVTFSVPVGIRFSW
KNRIGTKALNFTYTLASGAQGSLYQLKAEYLLLFINNPGCQACTETIEGLKNAPIINQLLQEKKLVLLSIYPDEELDEWKKHLSEFPNEWINGYDKKFTIKEEQVYDLKAIPTLYLLDKDKTVLLKDATAPAIEAYLMQHQ
MNLDDIESLSEQIARHIGEQIITGELVEGERIQELRIAKELDVSRGSVREALLLLERTHLIEIFPRRGAIVSEMSSQQVKALFDSSVLVLGHIVQKISESWRVHEAEQLQHLIEQLNEHVKAGDTEKFYDGIFEYLAQQHDMVMNAYLMKFYKELLPSLRRSYFLTLNTSRRELQEALALFKLVTDAILIRKSHQATLFMEDFCRHLRNLVLESLTRMKQIELAWARRSRRSSNR
MSLSHYTVGELANHLGVTVRTLQYYDRKGLLTAERATESNRRYYNDDHIQQLQLIFLLKQFGCTLDEIKTLLYEDSDMQTLKAMLQLHKKKLETSIHDQTKALKHLNNVDQYISSHSSAPINHLSDIDKAVKQSTTLKSEGHHHHHH
MTQIVVGENEHIESALRRFKREVSKAGIFQDMRKHRHFETPIEKSKRKKLALHKQSKRRFRTLEHHHHHH
MKQLSSFDIKACVRELKELEGGKVEKVYHHPPDEIRIRIYAGRKVDLVIEAGRRIHLTKFPKQAPRFPSAFAMLLRKHLEGARIKKIEQYDFDRVVVIEFERFGEIRRIVAELFSKGNVVLLNEENRVIMPLKHTIKVGELYRFPEQRERKDEDREVVRVLAMSGLGGLYAEEVCLRAGIDKKKKYAELSEDERKKIDEEIERLMNFTPKPQIILKDGDYLDVVPMDLLYYSNYEKKYFESFNDALDDYFSKKLAEMDELESMKSEELEKLKKRLEIQKESLRKFEDEAESFRKIGDAIYENYQMVEKIIEAFRAARERKSWDEIKEIVARDEKLKKLVKAIKPEKNAIVVKVGDFDVELEIKKSIHENADLYYEKAKKAREKAEGVKRAIEATLREMERVEEKLEKKLVTSIKVRRKKEWYE
MGNWITSTFLRFDLFQRHQPNRFLEYTRVQHSNQSPAYSVRTAAEIVAHQRMKPNHSNDSDTDFSSDDEGCPKMTPHEEQQMFEREQHIAFSGRCHIGDPESCTQLRNEINSRCGPRPSTSNNMEFILNRDLQKRGTSISNPRTVARVLNSHLPNQKRRVDRVATKSFCTQYIQNGTKIVVASQDEKIRFYQRNPDKSKYRSKYMKSDELRVDQCGWSILDTAISLNGDLIAYGTWKDAVFVGKLDFTERQNITWFPIDLNGEPGRDHCAVFCVKFSDSSEQIVCGTSQYSIHVFDVEQRRRIRTIVNAHEDDVNSVCFADLGSNLIYSAGDDGLVKVWDKRAWSDGDVEPVGVFAGHRDGVTHVDSRQDERYLLSNSKDQTIKVWDLRKFSNMSGVEATRACVQSQHWDYRWQPAPPGLCQPVAGDTSVMTLRGHSVLHTLVRANFSPESTGRRYIYTGCARGEVVVYDIMSGTVSRRLKGHTAVVRECDWHPTENEIVSSAWDGVTTVWTWDERQEGVIAPYDHPNISQFGDEDSCDELFQPVKKQCRRQRKTMSSRGHPCSSSSISQN
MSTSSVRFAFRRFWQSETGPKTVHFWAPTLKWGLVFAGFSDMKRPVEKISGAQNLSLLSTALIWTRWSFVIKPRNILLASVNSFLCLTAGYQLGRIANYRIRNGDSISQLCSYILSGADESKKEITTGR
MYLHGTSRINGQGHLEIGGCDTTQLAKQYGTPLYVYDEGSIRGKCRAFHRAFKESGFSYQVAYASKAFLCMEMCRVAREENMSLDVVSGGELYTALQAGFPASRIHFHGNNKTEEEIVMALQANIGCFVVDNFFELEVLHDLAMQHGKFVNILIRVTPGVEAHTHEYITTGQDDSKFGFGVSNGQAMQAIGLALQKSNYNVLGIHSHIGSQIFETAGFVRAIEVLRQFLEEVREQTNYVVKVLNVGGGFGIRYTESDTPLTLETYVRAVTSAVREQFTVCEYPLPEIWIEPGRSIVGDAGTTIYTVGSVKDIPGIRKYVSVDGGMTDNLRPALYNARYEAMLANRANDENEELVSIAGKCCESGDMLIWDIHLPKVAASDLLAVSCTGAYGYSMANNYNRIRRPAVVFAKGGTSQVVVERETYENIIGNDRIRIKELV
MGSDKIHHHHHHMEITIFGKGNMGQAIGHNFEIAGHEVTYYGSKDQATTLGEIVIMAVPYPALAALAKQYATQLKGKIVVDITNPLNFDTWDDLVVPADSSAAQELQQQLPDSQVLKAFNTTFAATLQSGQVNGKEPTTVLVAGNDDSAKQRFTRALADSPLEVKDAGKLKRARELEAMGFMQMTLAASEQIGWTGGFAVVK
MVVIMLNYDDIKIIDEIYSEGYLFAQYGIYIKKKFKQKIFKIPVDIGLGCPHKKNGGCIFCPEMGRPISVKYCSAKIPLKEQIKKQMENQKKKGFKKFYIYFYPGTNTYAPAEKLKEIWDFSLSYKEVIGLSIGTRPDCLEKEKLDILAEYVENGYDIWIDLGVQSMHQKTLEILNRGHDVSDIIKAIKDCHKRGIKVCGHVILGLPGESWKEMMETAKILSLLEIEAVKIYPLVVVKGTKLEEMYW
ERYGALAVPVGPGNLDIQTTFLVDLQSTVVCCTASMGLLLAEEVQRRNLRDKIAVRKVILGAERSSEAILAKIRECLGAESVHDITGLTEVYGPGTGLSCGVPGADGSI

Soluble on expression in E. coli, soluble:
GSEDLKKLEEEFDVRLGVYAIDTGADKEISYRENERFAYTSTFKPLAVGAVLQTKSDEELEETITYSEEDLVTYSPITEQHVDEGMTLVEIADAAIRYSDNTAGNLLLEAMGGPDELETILRDIGDETIEMDRYETELNEAKPGDIRDTSTAKAMATTLQQYVLEDVLDADRREVLTNMLINNTTGDALIRAGVPDGWTVGDKTGAGGYGTRNDIGIIWPEGDEEPIVIAIMSSRDEEDADYDDKLIEKATEIVLQELRN
MLKYNIRGENIEVTEPIRDYVEKKIDKLERYFTETPDANVHVNLKVYSDKNAKVEVTIPLPNLVLRAEETSGDLYASIDLIVDKLERQIRKHKTKVNRKFRDKGAERDYFAYSDVNGSTPPEENEGDFDLEIVRTKQFSLKPMDSEEAVLQMNLLGHSFYVYTDAETNGTNIVYSRKDGKYGLIETNLEHHHHHH
SNFLEIDIFNPQTVGVGRARFTTYEVRMRTNLPIFKLKESCVRRRYSDFEWLKNELERDSKIVVPPLPGKALKRQLPFRGDEGIFEESFIEERRQGLEQFINKIAGHPLAQNERCLHMFLQEEAIDRNYVPGK
MLLYKDVISGDELVSDAYDLKEVDDIVYEADCQMVTVKQGGDVDIGANPSAEDAEENAEEGTETVNNLVYSFRLSPTSFDKKSYMSYIKGYMKAIKARLQESNPERVPVFEKNAIGFVKKILANFKDYDFYIGESMDPDAMVVLMNYREDGITPYMIFFKDGLVSEKF
MSLSSEVVLMKPYEKLVERFNEMAAEFLSYFPTVKSVGNLESELDKRRFVILFRAMLRLRNEVKGYNEFDAEDLTIEEQRFADYQSKYLDMSNEFAITSEKEDAESILQDIDFELELVHRDIINVMYILALLQDLKPESSSYPKDRKAVLDTMDSNPELRSKIALIDNFIKLHIDGRQSNDLPADMESDLDKYIATQKAIAIEQVATEEGIDSTLLHEYISEYEYLGKPKNEIIKRAIDPLKLSFMDAQSKKKSLIDKMKDIIKLFSWNEGHHHHHH
GPGSMSETIPVSVQCCEGRFELSVDSNHTLRDVLRQFKREVAALDPINLEEYVVNHEGKLLLDDSVTLQTVGVKKDSVFVLVRKACCPAASPEKDEDDM
EDNSRYTHFLTQHYDAKPQGRDDRYCESIMRRRGLTSPCKDINTFIHGNKRSIKAICSQKNVACKNGQTNCYISKSSFQVTTCKLHGGSPWPPCQYRATAGFRNVVVACENGLPVHLDQSIFR
SKTNHIVIIGYSRIGKCVALSLINRGDPVVIVEESKRLTDKAIADGFEVICGNIIKQDVMNAANMSNAYKVVITMCNTIEVGECIVNIRDMNKDIQIITHTLSDVDTAYLIDLGADIVVTDEEEIANGVIEHITGQRFIKNIAQS
